Experimental data as given in US20240261333A1, “NOVEL TARGETS FOR ENHANCING ANTI-TUMOR IMMUNITY” (THE BROAD INSTITUTE, INC., priority 2021, published 2024).

T1: B3GNT2 (Homo sapiens, UniProt Q9NY97)
T1 construct: The respective ORFs of candidate genes [CD274 (NM_014143), MCL1 (NM_021960), JUNB (NM_002229), and B3GNT2 (NM_006577)] were synthesized; expressed in transfected cells; host or cells: A375 melanoma cells (lentiviral ORF overexpression)
T1 sequence (Q9NY97 1-397): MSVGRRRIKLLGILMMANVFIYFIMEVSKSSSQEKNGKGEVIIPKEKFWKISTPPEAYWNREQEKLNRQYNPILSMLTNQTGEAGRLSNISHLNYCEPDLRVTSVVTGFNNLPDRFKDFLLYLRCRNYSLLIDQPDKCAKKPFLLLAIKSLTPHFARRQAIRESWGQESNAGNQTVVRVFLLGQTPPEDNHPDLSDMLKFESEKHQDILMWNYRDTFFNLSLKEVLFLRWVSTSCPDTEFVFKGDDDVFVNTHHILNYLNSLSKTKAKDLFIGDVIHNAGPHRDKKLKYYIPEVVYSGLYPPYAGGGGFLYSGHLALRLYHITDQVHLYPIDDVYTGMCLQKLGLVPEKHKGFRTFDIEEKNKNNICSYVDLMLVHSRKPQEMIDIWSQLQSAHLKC

B1: ILF3 (protein)
chain: MRPMRIFVNDDRHVMAKHSSVYPTQEELEAVQNMVSHTERALKAVSDWIDEQEKGSSEQAESDNMDVPPEDDSKEGAGEQKTEHMTRTLRGVMRVGLVAKGLLLKGDLDLELVLLCKEKPTTALLDKVADNLAIQLAAVTEDKYEILQSVDDAAIVIKNTKEPPLSLTIHLTSPVVREEMEKVLAGETLSVNDPPDVLDRQKCLAALASLRHAKWFQARANGLKSCVIVIRVLRDLCTRVPTWGPLRGWPLELLCEKSIGTANRPMGAGEALRRVLECLASGIVMPDGSGIYDPCEKEATDAIGHLDRQQREDITQSAQHALRLAAFGQLHKVLGMDPLPSKMPKKPKNENPVDYTVQIPPSTTYAITPMKRPMEEDGEEKSPSKKKKKIQKKEEKAEPPQAMNALMRLNQLKPGLQYKLVSQTGPVHAPIFTMSVEVDGNSFEASGPSKKTAKLHVAVKVLQDMGLPTGAEGRDSSKGEDSAEETEAKPAVVAPAPVVEAVSTPSAAFPSDATAEQGPILTKHGKNPVMELNEKRRGLKYELISETGGSHDKRFVMEVEVDGQKFQGAGSNKKVAKAYAALAALEKLFPDTPLALDANKKKRAPVPVRGGPKFAAKPHNPGFGMGGPMHNEVPPPPNLRGRGRGGSIRGRGRGRGFGGANHGGYMNAGAGYGSYGYGGNSATAGYSQFYSNGGHSGNASGGGGGGGGGSSGYGSYYQGDNYNSPVPPKHAGKKQPHGGQQKPSYGSGYQSHQGQQQSYNQSPYSNYGPPQGKQKGYNHGQGSYSYSNSYNSPGGGGGSDYNYESKFNYSGSGGRSGGNSYGSGGASYNPGSHGGYGGGSGGGSSYQGKQGGYSQSNYNSPGSGQNYSGPPSSYQSSQGGYGRNADHSMNYQYR
B2: TUBB6 (protein)
chain: MREIVHIQAGQCGNQIGTKFWEVISDEHGIDPAGGYVGDSALQLERINVYYNESSSQKYVPRAALVDLEPGTMDSVRSGPFGQLFRPDNFIFGQTGAGNNWAKGHYTEGAELVDAVLDVVRKECEHCDCLQGFQLTHSLGGGTGSGMGTLLISKIREEFPDRIMNTFSVMPSPKVSDTVVEPYNATLSVHQLVENTDETYCIDNEALYDICFRTLKLTTPTYGDLNHLVSATMSGVTTSLRFPGQLNADLRKLAVNMVPFPRLHFFMPGFAPLTSRGSQQYRALTVPELTQQMFDARNMMAACDPRHGRYLTVATVFRGPMSMKEVDEQMLAIQSKNSSYFVEWIPNNVKVAVCDIPPRGLKMASTFIGNSTAIQELFKRISEQFSAMFRRKAFLHWFTGEGMDEMEFTEAESNMNDLVSEYQQYQDATANDGEEAFEDEEEEIDG
B3: SPRR1A (protein)
chain: MNSQQQKQPCTPPPQPQQQQVKQPCQPPPQEPCIPKTKEPCHPKVPEPCHPKVPEPCQPKVPEPCQPKVPEPCPSTVTPAPAQQKTKQK
B4: ZC3HAV1 (protein, UniProt Q7Z2W4 2-902, looked up)
Zinc finger CCCH-type …: ADPEVCCFITKILCAHGGRMALDALLQEIALSEPQLCEVLQVAGPDRFVVLETGGEAGITRSVVATTRARVCRRKYCQRPCDNLHLCKLNLLGRCNYSQSERNLCKYSHEVLSEENFKVLKNHELSGLNKEELAVLLLQSDPFFMPEICKSYKGEGRQQICNQQPPCSRLHICDHFTRGNCRFPNCLRSHNLMDRKVLAIMREHGLNPDVVQNIQDICNSKHMQKNPPGPRAPSSHRRNMAYRARSKSRDRFFQGSQEFLASASASAERSCTPSPDQISHRASLEDAPVDDLTRKFTYLGSQDRARPPSGSSKATDLGGTSQAGTSQRFLENGSQEDLLHGNPGSTYLASNSTSAPNWKSLTSWTNDQGARRKTVFSPTLPAARSSLGSLQTPEAVTTRKGTGLLSSDYRIINGKSGTQDIQPGPLFNNNADGVATDITSTRSLNYKSTSSGHREISSPRIQDAGPASRDVQATGRIADDADPRVALVNDSLSDVTSTTSSRVDDHDSEEICLDHLCKGCPLNGSCSKVHFHLPYRWQMLIGKTWTDFEHMETIEKGYCNPGIHLCSVGSYTINFRVMSCDSFPIRRLSTPSSVTKPANSVFTTKWIWYWKNESGTWIQYGEEKDKRKNSNVDSSYLESLYQSCPRGVVPFQAGSRNYELSFQGMIQTNIASKTQKDVIRRPTFVPQWYVQQMKRGPDHQPAKTSSVSLTATFRPQEDFCFLSSKKYKLSEIHHLHPEYVRVSEHFKASMKNFKIEKIKKIENSELLDKFTWKKSQMKEEGKLLFYATSRAYVESICSNNFDSFLHETHENKYGKGIYFAKDAIYSHKNCPYDAKNVVMFVAQVLVGKFTEGNITYTSPPPQFDSCVDTRSNPSVFVIFQKDQVYPQYVIEYTEDKACVIS

Target: T1, B3GNT2
Assay: Co-IP of FLAG-tagged B3GNT2 followed by mass spectrometry
Assay type: cell-based
Set-up: C-term IgG / C-term flag: unit not given here
Settings: mass spectrometry count, unit not given; for C-term flag / N-term FLAG: Co-IP with FLAG antibody; for C-term flag / C-term IgG: C-terminally FLAG-tagged B3GNT2; for N-term FLAG / N-term IgG: N-terminally FLAG-tagged B3GNT2; for C-term IgG / N-term IgG: Co-IP with IgG control antibody
Procedure, shortened: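 FLAG-tagged B3GNT2 immunoprecipitated from cell lysate (HEPES, 1% Triton X-100, 150 mM NaCl) with anti-FLAG versus […], overnight at 4° C, then captured on Protein A/G magnetic beads for 4 h. Two biological replicates per condition. Peptides fractionated and analyzed by nano-LC on an Orbitrap Elite in data-dependent mode.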

Molecule | C-term flag | N-term FLAG | C-term IgG | N-term IgG
B1 | 5 | 2 | 0 | 0
B2 | 42 | 63 | 0 | 0
B3 | 3 | 4 | 0 | 0
B4 | 4 | 3 | 0 | 0
